The values below come from the nanobody polyreactivity screen of Harvey et al. (2022).

This series in a line: yeast display, Sf9 membrane polyspecificity reagent, FACS + sequencing; frameworks hold sequencing errors. The procedure, abridged:
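Galactose induction of a Saccharomyces cerevisiae BJ5465 synthetic nanobody display library ran 36–48 hours. The cells were then stained for 1 hour at 4 °C with 10% biotinylated, detergent-solubilized Sf9 membrane reagent, pulled down on streptavidin microbeads and FACS-sorted into low and high (top ~1%) gates on expression and reagent-binding fluorescence. Labels for polyreactivity follow the gate of origin.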
As to “QVQLVESGGVLVQAGGSLRLSCAASGFINLRYAMGWYRQAPGKERELVAAITSGGNTYYADSVKGRFTISRDNAKNTVSLQRNSLKQEDTAVYYCAAERFVITYPISRYYYWGQGTQVTVSS”, the “polyreactivity (PSR sort gate)” value is reported as “low polyreactivity”.
The entry for “QVQLVESRGGLVQAGGSLRLSCAASGATFNHYAMGWYRQAPGKERELVAAITKSGGSTYADSVKGRFTISRDNAKKTVYLQMNSLKPEDTAVYYCAAGRRKYGTKGRGDYWGQGSQVTVSS” is “low polyreactivity”.
Under “QVQLVESGGGLVQAGGSLRLSCAASGIIIDYNAMGWYRQAHGKERELVAAISSRGGSTYYADSVKGRFTISRDNAKNTVYLQMNSLKPEDTAVYYCAKVIGKYVNSYYWGQGTQVTVSS” stands “low polyreactivity”.
Consider “QVQLLESGGGLVQAGGSLRLSCAASGSTLLQYAMGWYRQAPGKEREFVAAISASGARTYYADSVKGRFTISRDNAKNTVYLQMNSLKPEETAVYYCAALTQRSSFDYWGQGTQVTVSS”, for which the “polyreactivity (PSR sort gate)” value is given as “high polyreactivity”.
The entry for “QVQLVESGGGLVQAGGSLRLICAASGRTVYRYAMGWYRQAPGKERELVAAITTSGGSTYYADSVKGRFTISRDNAKKTVNIQMNSLKPEDTAVYYCARRVYGYYIPYNYWGKGTQVTVSS” is “high polyreactivity”; for “QVQLVESGAGLVQAGGSLRLSCAASGLIFQSNAMVWYRQAPGKERELVAAISTAGSTNYGDSETGRFTISRDNAKKTVFLQMNSLKREDTAVYSCAAQVSTPYRYPRQILYDYWGQGTQVTVSS” it is “low polyreactivity”.
Under “QVQLVESGGGLVQAGGSLRLSCADSGSTFGYYAMGWYRQAPGKERELVAGISSGGTTKYADSVKGRFTISRDNAKNTVYLQMNSLKPVDTAVYYCAARFRRTRVTYYYWGQGTQVTVSS” stands “high polyreactivity”.
Regarding “QVQLVESGGGLVQAGGSLRLSCAASGRTFIRNAMGWYRQAPGKERELVAAISRSGGRTYYADSVKGRFTISRDNAKNTVYLQMNSLKPEDTAVYYCAAGSYQRYAFDYWGQGTQVTVSS”, the “polyreactivity (PSR sort gate)” value was “high polyreactivity”.
The entry for “QVQLVESGGGLVQAGGSLRLSCAASGFTFPSYAMGWYRQAPGKERELGAVISRRGGSTYYADSVKGRFTISRDNAKNTVYLQLNSLKPEDTAVYYCARPRQPGSLYGYWGQGTQVTVSS” is “high polyreactivity”; for “QVQLVESGGGLVQAGGSLRLSCAASGLIFAYNTMGWYRQAPGKERELVAGITSSGSTYYADSVKGRFTISRDNAKNTVYLQMNSLKPEDTAVYYCAAEWDDGRSWYWYYLVGFEYWGQGTQVTVSS” it is “high polyreactivity”; for “QVQLVESGGGLVQAGGSLRLSCAASGRIFSSNAMGWYRQAPGTERELVASLSSTGSPKYADSVKGRFTISRDNAKNTVYLQMNSLIPEDTAVYYCAATQVRRGPAWGRDYWGQGTQVTVSS” it is “low polyreactivity”.
“QVQLVESGGGLVQAGGSLRLSCAASGFTFPGNAMGWYRQAPGKEREFVAAITRSSGSTSYADSVKGRFTISRDNAKNTVYLQMTSLKPEDTAVYRDYWGQGTQVTVSS”: the “polyreactivity (PSR sort gate)” value is reported as “low polyreactivity”.
Under “QVQHVESGGGLVQAGGSLRLSCAASGSTFPYYAMGWYRQAPGNERELVAAISNGVSTYYADSVKGRFTISRDNAKNTVYFHMNCLKQVDTAVYYCAGDFWITTRDIVKWWLYDYWGQGTQVTVSS” stands “low polyreactivity”.
Under “QVQLVESGGGLVQAGGSLRLSCAASGRTFTWYTMGCYIQAPGKERELVAAISGSGSRTYYADSVKGRFTISRDNAKNTVYLQMNSLKPEDTAVYYCAKDKSARYRYDYWGQGTQVTVSS” stands “low polyreactivity”; under “QVQLVESGGGLVQAGGSLRLICAASGRIFRHYAMGWYRQAPGKEREFVAAISRSGGSTYYADSVKGRFTISRDNAKNTVYLQMHSLKPEDTAVYYCYARHRYTGIRFFQPYDYWGQGTQVTVSS”, “low polyreactivity”; under “QVQLVESGGGLVQAGGSLRLSCAASGLTFTDYAMGWNRQAPGKERELVAGIWDGGSTYYADSVNGRFTISRDNPKNTVYLLMNSLKPEDTAVYYCAARYAGGFYYWGQGTQVTVSS”, “high polyreactivity”.
Under “QVQLLESGGGLVQAGGSLRLSCAASGSTFDWYVMGWYRQAPGKERELVAAINQGSGSTYYADSVKGRFTISRDNAKNTVYLQMNSLKPEDTAVYYCAADRYGAGYLYWPYDYWGQGTQVTVSS” stands “low polyreactivity”; under “QVQLVESGGGLVQAGGSLRLSCAASGSILDQNTMGWYRQAPGKERELVAAITGSGGITYYADSVKGRFTISRDNAKNTVYLQMNSLKPEDTAVYYCATRTWRAYRKYNYWGQGTQVTVSS”, “high polyreactivity”; under “QVQLVESGGGLVQAGGSLRLSCAASGSTFDFNAMGWYRQAPGKERELVAAITYSAGSTYSADSVKGRFTISRDNAQNTVDLQMNSLKPEDTAVYYCAAEDVYPGSIDMDDWGQGTQVTVSS”, “low polyreactivity”.
With “QVQLVESGGGLVQAGGSLRLSCAASGFTFPVYALGWYRQAPGKEREFVAAITKSGGGTYYADSVKGRFTISRDNAKNTVYLQMTSLKPEDTAVYYCAKASRRFLTLGYDYWGQGTQVTVSS”, the “polyreactivity (PSR sort gate)” value was “high polyreactivity”.
The entry for “QVQLVESGGGLVQAGGSLRLSCAASGFTFDNYVMGWYRQAPGKERELVAAISKSGTSTYYADSVKGRFTISRDNAKNTVYLQMNSLKPEDTAVSYCAARQYSQEPYDYWGQGTQVTVSS” is “high polyreactivity”; for “QVQLVESGRGLVQAGGSLRLSCAASGRIFHYNAMVWYRQAPRKERELVAAISGSGGSTYYADTVKGRFTISRDIAKNTVYLQMNSLKPEDTADYYCGDKRRTLGGYWGQGTQVTVSS” it is “high polyreactivity”.
Under “QVQLVESGGGLVQAGGSLRLSCAASGITFVFYTMGWYRQAPGKERELVAAISRSGASTYYADSVKGRFTISRDNAKNTVYLQMNSLKPEDTAVYYCAADRGYRFRMDYWGQGTQVTVSS” stands “high polyreactivity”; under “QVQIVESGGGLVQAGGSLRLSCAASGFTFRVYAMGWYRPAPGKERELVAAISARGGSTYYADSVKVRFTISRDNAKNTVDLQMNSLKPEDTAVYYCAAEPSGKRSKFYYWGQGTQETVSS”, “high polyreactivity”; under “QVQLVESGGGLVQAGGSLRLSCAASGYIFKYYAMGWYRQAPGKERELVATINYSGGGTYYADSVKGRFTISRDNAKNTVYLQMNSLKPEDTAVYYCAAEHFFWGYDYWGQGTQVTVSS”, “high polyreactivity”.
The entry for “QVQLEESGGGLVQAGGSLRLSCAASGSTFYINAMGWYRQAPGKERELVAAITWRGGRTYYADSVKGRFTISRDNAKNTVYLQLNSLKPEDTAVYYCAAKVRWHRGTSSYYYWGQGTQVTVSS” is “high polyreactivity”; for “QVQLVESGGGLVQAGGSLRLRCAASGFIFQINAMGWYRQAPGKEREFVAAISRSVGSTSYADSVKGRFTISRDNAKNTVYLQMNSLKPEDTAVYYCNAAQRKRKGPYDYWGQGTQVTVSS” it is “high polyreactivity”.
“QVQLVESGGGLVQAGGSLRLSCAASRNTFVPYVMGWYRQAPGKERELVAAISRRGGSTRYADSVKGRFTISRDNAKNTVYLQMNSLKPEDTAVYYCAAKRKSYYSYNFDYWGHGTQVTVSS”: the “polyreactivity (PSR sort gate)” value was “high polyreactivity”.
The entry for “QVQLVESGGGLVQAGGSLRLSCADSGSTIYPYAMGWYRQAPGKERELVAAINRSGGRTYYADSVKGRFTISRDNAKNTVYLQMISLKPEDTAVYYCAARVRSRNSYDYWGQGTQVTVSS” is “low polyreactivity”.
In the case of “QVQLVESGGGLVQEGGSLRLSCAASGIIHYYYVMGWYRPAPGKERELVAAINRSGTATYYADSVKGRFTISRDNAKNTVYFQMNSLIPEDTAVYYCAADVRWRYYWGQGTQVTVSS”, the “polyreactivity (PSR sort gate)” value was “high polyreactivity”.
The entry for “QVQLVESGGGLVQAGGSLRLSCAASGRTFIFYAMGWYRQAPVKERELVAAITYSGTSTYYADSVKGRFTISRDNAKNTVYLQMNSLKPEDTAVYYCAKDGQRDANYYWGQGTQVTVSS” is “low polyreactivity”; for “QVQLVESGGGFDQAGGSLRLSCAASGSIFFYYVMGWYRQAPGKERELVAVISSGGGSTYYADSVKGRFTISRDNAKNTVYLQMNSLKPEDTAVYYCAAGTYYKFYYWGQGTQVTVSS” it is “high polyreactivity”; for “QVQLVESGGGLVQAGGSLRLSCAASGRIFKRYAMGWYRQAPGKERELVAAITYNSGSTYYADSVKGRFTISRDNAKNTVYLQMNSLKPEDTAVYYCAAEKWSDQSPRGDYWGQGTQVTVSS” it is “low polyreactivity”.
Under “QVQLVESGGGLVQAGGSLRLSCAASGGIFGSYAMGWYRHAPGKERELVADITQSGGRTRYADSVKGRFTISRDNAKNTVYLQMNSLKPEDTAVYYCNAQDVDSGDDYDYWGQGTQVTVSS” stands “low polyreactivity”; under “QVQQQESGGGLVQAGGSLRLSCAASGNTSDTGYMGWYRQAPGKERKVVASIDYGSNTYYADSVKVRFTISRDNAKNTVYLQMNSLKPEDTAVYYCAAYYIGDYTLVYWGQGTQVTVSS”, “high polyreactivity”.
The entry for “QVHRVESGGGLVQAGGSLRVSCAATGINFSDYAMGWYRQEPGKERQLVAAITGGGSTYYADSVKGRFTISRDNAKNTVYLQMNSLKPEDTAVSYCNAVWARLWIRSTEVDYRGQGTQVTVSS” is “low polyreactivity”; for “QVQLVESGGGLVQAGGSLRLSCAASGFIFDYYAMGWYRQAPGKERELVATISSSGGSTYYADSVKGRFTISRDYAKKTVYLQMNSLKPEDTAVYYCATGYTWVADSWEYYYWGQGTQVTVSS” it is “low polyreactivity”; for “QVQLVESGGGLVQAGGSLRLSCAASGSIFPEYVMGWYRQAPGKERELVAAISWSGGSTYYADSVKGRFTISRDNAKNTVYLQMNSLKPEDTAVYYCNRVPSWRIDYDYWGQGTQVTVSS” it is “low polyreactivity”.
As for “QVQLVESGGGLVQAGGSLRLSCAASGSIFSTNAMGWYRQAPGKEWELVAVITGIGGITYYADSVKGRFTISRDNAKNTDYLQMNSLKPEDTAVYYCAADPISEFYWGVKDRYDYWGQGTQVTVSS”, the “polyreactivity (PSR sort gate)” value is “low polyreactivity”.
On to “QVQLVESGGGLVQAGGSLRLSCAASGSIFYSYAMGWYIQAHGKERELVARINYRGGSTYYADSVKGRFTISRDNAKNTVYLQMNSLKPEDTAVFYCAKRSYWSSNPRDYWGQGTKVTVSS”, for which the “polyreactivity (PSR sort gate)” value was “high polyreactivity”.
The entry for “QVQLVESGGGLVQAGGSLRLSCAASGRNFEIYAMGWYRQAPGKERELVAAISWRGVSTYYADSVKGRFTISRDNAKNTVYLQMNSLKPEDTAVYYCNKDVDYFWYVEYDYWGQGTQVTVSS” is “low polyreactivity”.
